The values that follow come from publication PMC8891188 (Clinical Pharmacokinetics, 2021).

Where two headings read alike, the source gives them in different places.

As usually defined, the MRT is the average time that molecules of a dose stay in the body.

The conditions of data set [1]: simulation of the previous study by Rüppel et al.; cited from earlier work.
For data set [2] the following is noted: 10 U SC; Howey et al.; cited from earlier work.
The conditions of data set [3]: cited from earlier work.
For data set [4], the system named is persons with type 1 diabetes mellitus. Briefly: Euglycemic clamp pharmacodynamics. Type of data set: in vivo, human.
Data set [5] can be described thus: Serum insulin pharmacokinetics during euglycemic clamp. The class given is in vivo, human.
The mark [6] stands for this setting: across doses, TI inhaled, LIS SC.
The mark [7] stands for this setting: mean (SD) of n = 5 PK profiles selected for comparable AUClast, SD.

For “RHI: regular human insulin, given intravenously or subcutaneously in cited studies”, in data set [1], the “ED50, Emax model of predicted GIR AUC vs D” value is reported as 48 U. The MRT in data set [2] was 3.92 h. Further, the “Time to maximum concentration (Cmax) of insulin” value in data set [3] (IV, after the start of administration) is given as 5 min; in data set [3] (SC, after administration) it was 121 min.
For “[Lys(B28), Pro(B29)]-human insulin [LIS]”, in data set [4] (setting [6]), the “Geometric mean dose-normalized effect, GIR AUC/D” value amounted to 66.2 mg/kg/U. Moreover, in data set [4] (common to TI and LIS, estimate (standard error), SEM), the “γ, model of GIRmax vs Cmax (common value)” value is 1.37 (0.19). In addition, in data set [4] (n = 5 profiles per treatment, AUClast about 6537 min∙µU/mL), the “Total effect (GIR AUC) at comparable low insulin exposure” value is 899 mg/kg. Besides, the “Exponent of dose dependence of tGIRend (tGIRend ~ D^x)” value in data set [4] (power-law fit, log-transformed variables) was approximately 0.282. The MRT in data set [2] was 1.68 h. In addition, the “Insulin exposure estimated from the linear regression equations” value in data set [5] (10-U dose of LIS SC, regression equations in the ESM) is 8152 min µU/mL. Besides, the “Geometric mean dose-normalized insulin exposure (AUClast/D) across doses” value in data set [5] (setting [6]) was 883 min·µU/mL/U. In addition, the “Estimated MRT at the same insulin exposure” value in data set [5] (insulin exposure of 8152 min µU/mL, regression equations) was 1.97 h. Also, in data set [5] (setting [7]), the “AUClast of profiles at the high end of the common exposure range” value is 61,371 (9082) min∙µU/mL and the “AUClast of profiles at the low end of the common exposure range” value is 6538 (65) min∙µU/mL.
